# Assay results reported in patent US20210196796A1 (SYNTHEKINE, published 2021).
# Positions count from the first letter of the chain named.
# B1: SQVLDA (ligand)
# chain: APTSSSTKKTQLQLSQLLVLLDAILNGINNYKNPKLTRMLTFKFYMPKKATELKHLQCLEEELKPLEEVLNLAQSKNFHLRPRDLISNINVIVLELKGSETTFMCEYADETATIVEFLNRWITFCQSIISTLT
# B2: SQVLKF (ligand)
# chain: B1 chain with D22K, A23F
# B3: SQVLKW (ligand)
# chain: B1 chain with D22K, A23W
# B4: SQVLKH (ligand)
# chain: B1 chain with D22K, A23H
# B5: SQVLKV (ligand)
# chain: B1 chain with D22K, A23V
# B6: SQVLKQ (ligand)
# chain: B1 chain with D22K, A23Q
# B7: SQVLKS (ligand)
# chain: B1 chain with D22K, A23S
# B8: SQVLKY (ligand)
# chain: B1 chain with D22K, A23Y
# B9: SQVLKL (ligand)
# chain: B1 chain with D22K, A23L
# B10: SQVLTA (ligand)
# chain: B1 chain with D22T
# B11: ΔM23, SQVLK- (ligand)
# chain: APTSSSTKKTQLQLSQLLVLLKILNGINNYKNPKLTRMLTFKFYMPKKATELKHLQCLEEELKPLEEVLNLAQSKNFHLRPRDLISNINVIVLELKGSETTFMCEYADETATIVEFLNRWITFCQSIISTLT
# Biological target: T1, orthogonal hCD122 receptor (hoRb), hCD122 with H133D and Y134F (human, UniProt P14784 27-550)
# T1 sequence: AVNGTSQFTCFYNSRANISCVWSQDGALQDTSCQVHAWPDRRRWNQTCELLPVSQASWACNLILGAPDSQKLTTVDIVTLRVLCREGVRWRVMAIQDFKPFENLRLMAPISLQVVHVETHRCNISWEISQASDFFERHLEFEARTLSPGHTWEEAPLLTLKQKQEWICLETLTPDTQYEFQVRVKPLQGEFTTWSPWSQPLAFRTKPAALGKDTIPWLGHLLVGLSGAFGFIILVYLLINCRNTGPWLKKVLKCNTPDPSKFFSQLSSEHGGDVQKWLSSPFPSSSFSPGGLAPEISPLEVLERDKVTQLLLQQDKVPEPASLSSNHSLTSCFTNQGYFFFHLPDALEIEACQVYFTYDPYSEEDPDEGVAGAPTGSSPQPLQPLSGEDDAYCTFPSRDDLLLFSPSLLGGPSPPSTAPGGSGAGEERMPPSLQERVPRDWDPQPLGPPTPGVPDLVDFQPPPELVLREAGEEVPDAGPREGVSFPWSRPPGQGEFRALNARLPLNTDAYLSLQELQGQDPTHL
# Test: cell-based or functional assay
# For Relative Proliferation Fold Change 3F8 1:10 in this document: reference of the scale not given here.
# For Relative Proliferation Fold Change 3F8 1:2 in this document: reference of the scale not given here.
# For Relative Proliferation Fold Change 3F8 1:50 in this document: reference of the scale not given here.
# For Relative Proliferation Fold Change NKL 1:10 in this document: reference of the scale not given here.
# For Relative Proliferation Fold Change NKL 1:2 in this document: reference of the scale not given here.
# For Relative Proliferation Fold Change NKL 1:50 in this document: reference of the scale not given here.
Binder,NKL Ortho Proliferation Signal 1:2,NKL Ortho Proliferation Signal 1:10,NKL Ortho Proliferation Signal 1:50,Relative Proliferation Fold Change NKL 1:2,Relative Proliferation Fold Change NKL 1:10,Relative Proliferation Fold Change NKL 1:50
B1,35100,22700,11600,2.55 fold,1.65 fold,0.95 fold
B2,65100,44700,23200,3.54 fold,2.5 fold,1.43 fold
B3,52000,36000,17900,3.55 fold,2.52 fold,1.33 fold
B4,44400,39200,18500,4 fold,2.7 fold,1.49 fold
B5,63400,66100,29900,4.61 fold,4.15 fold,2 fold
B6,74300,82000,49600,4.43 fold,4.61 fold,3.05 fold
B7,56200,59400,29000,4.79 fold,3.99 fold,2.11 fold
B8,52400,43800,21900,3.51 fold,2.64 fold,1.38 fold
B9,59700,67100,32700,4.69 fold,4.38 fold,2.26 fold
B10,26400,19400,7650,2.27 fold,1.38 fold,0.6 fold
B11,27600,19000,8950,2.87 fold,1.43 fold,0.73 fold

# Biological target: T1, orthogonal hCD122 receptor (hoRb), …
# Test: cell-based or functional assay
# Remark: another data set of the same source
Binder,3F8 Ortho Proliferation Signal 1:2,3F8 Ortho Proliferation Signal 1:10,3F8 Ortho Proliferation Signal 1:50,Relative Proliferation Fold Change 3F8 1:2,Relative Proliferation Fold Change 3F8 1:10,Relative Proliferation Fold Change 3F8 1:50
B1,33400 cts/min,32300 cts/min,19600 cts/min,43 fold,38.8 fold,30.2 fold
B2,42100 cts/min,48500 cts/min,21000 cts/min,42.8 fold,48.8 fold,17.4 fold
B3,40800 cts/min,32600 cts/min,20500 cts/min,36 fold,24.7 fold,34.3 fold
B4,25700 cts/min,17300 cts/min,18700 cts/min,39.9 fold,14.6 fold,13.7 fold
B5,45300 cts/min,53000 cts/min,21000 cts/min,36.1 fold,29.1 fold,20.8 fold
B6,45700 cts/min,64000 cts/min,33100 cts/min,31.1 fold,20 fold,29.5 fold
B7,43800 cts/min,55500 cts/min,26600 cts/min,90.8 fold,58.3 fold,24.2 fold
B8,39100 cts/min,50600 cts/min,24600 cts/min,29.5 fold,50 fold,30.3 fold
B9,40200 cts/min,37000 cts/min,8930 cts/min,43 fold,15.3 fold,5.43 fold
B10,24100 cts/min,15100 cts/min,6550 cts/min,0.46 fold,10.9 fold,5.95 fold
B11,6220 cts/min,4410 cts/min,2930 cts/min,12.9 fold,7.97 fold,2.82 fold
